Laboratory results as given in patent publication US20050032064.

Biological target: PPAR GAMMA (Mus musculus) (UniProt P37238)
Experiment: cell_activity
Settings: HepG2 per text (Cos per legend); induction vs empty pSG5; amplified by rosiglitazone

(Rev-DR2)x2 SV40 promoter luciferase reporter
activity: 2.5 fold
